± gives the uncertainty stated by the source.
Assay: protein stability index of a GFP-peptide fusion (yeast GPS) (PSI 1-4); higher = more stable; sorted into four equal gates, so the index is relative within each strain
Outline: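 Mid-log yeast cultures in leucine-free medium, carrying a pooled plasmid library, were sorted into four equal gates by their GFP/Cherry fluorescence ratio. Each plasmid expressed Cherry along with GFP fused upstream of a tiled 17-residue yeast protein peptide. Plasmids recovered from each gate were PCR-amplified and Illumina-sequenced, with reads assigned to strains by barcodes. The protein stability index was obtained by summing each gate's read frequency weighted by its gate number.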

| Sequence | protein stability index (doa10∆) | protein stability index (pdr5∆) | protein stability index (san1∆) | protein stability index (ubr1∆) |
| --- | --- | --- | --- | --- |
| GQGEQVDDVLETISAIE [RPN1] | 3.4 ± 0.27 | 3.05 ± 0.18 | 2.69 ± 0.19 | 2.91 ± 0.19 |
| VIGGNSLFHIVVDTEET [SMC3] | 2.73 ± 0.099 | 2.78 ± 0.091 | 2.54 ± 0.076 | 2.53 ± 0.06 |
| TNLQRNVDRLYKLNVRS [NUT2] | 3.66 ± 0.19 | 3.62 ± 0.2 | 3.01 ± 0.18 | 3.49 ± 0.073 |
| QAELLQLAVKIINKVLD [YJL039C/NUP192] | 2.33 ± 0.25 | 3.09 ± 0.091 | 2.74 ± 0.13 |  |
| AELVQKYIGEGSRMVRE [RPT6] | 2.74 ± 0.088 | 2.69 ± 0.075 | 2.65 ± 0.075 | 2.33 ± 0.11 |
| DLIKFSAETLSELIRTT [FAS1] | 2.1 ± 0.076 | 2.29 ± 0.059 | 2.1 ± 0.081 | 2.12 ± 0.073 |
| LVVYAEDNGIVKALRNV [RPL4A] | 2.1 ± 0.14 | 3.16 ± 0.12 | 2.59 ± 0.086 | 2.57 ± 0.12 |
| TLYSVKSKEDMKQLKFF [SNU114] | 3.28 ± 0.17 | 3.33 ± 0.13 | 3.17 ± 0.083 | 3.1 ± 0.087 |
| LELQVAKTFIDLESSSP [RPS7B] | 3.17 ± 0.071 | 3.2 ± 0.063 | 2.96 ± 0.11 | 3.11 ± 0.064 |
| DIWRVAGKFELLDRILP [SNF2] | 2.37 ± 0.086 | 2.65 ± 0.08 | 2.02 ± 0.14 | 2.54 ± 0.1 |
| LKPEIEKLTSKSLDEQL [LRP1] | 3.22 ± 0.083 | 3.26 ± 0.07 | 2.85 ± 0.077 | 2.88 ± 0.063 |
| ASSSAKLIEKKSAYANT [SMC2] | 2.82 ± 0.1 | 2.55 ± 0.055 | 2.73 ± 0.079 | 2.79 ± 0.042 |
| SDRREHDEKLSDELHNQ [LIN1] |  | 2.56 ± 0.18 | 3.19 ± 0.16 | 2.89 ± 0.16 |
| AIIRLHPSIYTQVFNIL [POP1] | 2.02 ± 0.051 | 1.22 ± 0.047 | 1.2 ± 0.09 | 1.22 ± 0.036 |
| EVYRTSLNTKKNEKLIL [SMC3] | 1.75 ± 0.082 | 1.96 ± 0.074 | 2.73 ± 0.13 | 2.35 ± 0.1 |
| DLQLLYVESDEDDTQIV [IRR1] | 3.32 ± 0.17 | 3.21 ± 0.14 | 3.07 ± 0.084 | 3.16 ± 0.12 |
| ITQDGKFAYKIDKITDG [YMR129W/POM152] | 2.9 ± 0.087 | 3.03 ± 0.073 | 2.81 ± 0.063 | 2.85 ± 0.051 |
| EVRDATLNNIFRFDSIQ [GRR1] | 3.18 ± 0.26 |  | 3.38 ± 0.2 | 3.24 ± 0.24 |
| RNSVKLLSKLLLKHPFK [YCS4] | 2.41 ± 0.042 | 2.1 ± 0.038 | 1.92 ± 0.056 | 2.07 ± 0.04 |
| NNGLPMKNKAETTTEED [ITC1] | 2.35 ± 0.29 | 3.18 ± 0.1 | 2.94 ± 0.092 | 3.03 ± 0.12 |
| DFDESLKYLDDLKAQFQ [RPN9] | 3.02 ± 0.15 | 3.17 ± 0.075 | 3.12 ± 0.098 | 3.11 ± 0.081 |
| YKIKGRNNSKSVLLKKL [SRP72] |  | 1.56 ± 0.11 | 2.42 ± 0.26 | 1.06 ± 0.11 |
| VVLFNRQPSLHRLSILS [RPO31] | 1.65 ± 0.054 | 1.88 ± 0.053 | 1.44 ± 0.096 | 1.63 ± 0.047 |
| NKRWKVDIGGKQHAVLM [RRP4] | 2.87 ± 0.064 | 3.25 ± 0.067 | 3.18 ± 0.05 | 3.2 ± 0.037 |
| LMLEDAVTEREVLVTPG [MCD1] | 1.94 ± 0.2 |  | 2.16 ± 0.13 | 2.18 ± 0.27 |
| NEESTNERLEINQEKPV [SIR4] | 3.31 ± 0.18 | 3.32 ± 0.13 | 3.37 ± 0.092 | 3.36 ± 0.1 |

| Sequence | protein stability index (doa10∆) | protein stability index (pdr5∆) | protein stability index (san1∆) | protein stability index (ubr1∆) |
| --- | --- | --- | --- | --- |
| ANVEILAVEDKPSPIDS [CSL4] | 2.98 ± 0.095 | 2.97 ± 0.13 | 2.57 ± 0.15 | 3.12 ± 0.063 |
| QLNCIDTQFTKLLDDNP [SRB8] | 2.44 ± 0.074 | 2.7 ± 0.068 | 2.57 ± 0.065 | 2.9 ± 0.048 |
| SQFNGSGNGSNPNTNTN [PGD1] | 2.48 ± 0.072 | 2.68 ± 0.068 | 2.84 ± 0.076 | 2.89 ± 0.034 |
| EDNNDAVNSIMALKFVS [ECM29] | 3.15 ± 0.1 | 3.3 ± 0.077 | 3.03 ± 0.079 | 3.32 ± 0.07 |
| KRNSDKVEYKIVHDDPA [ITC1] | 2.12 ± 0.072 | 2.02 ± 0.083 | 1.95 ± 0.13 | 1.27 ± 0.053 |
| DWGQALRLLLLLIEFPY [YJR042W/NUP85] | 1.44 ± 0.05 | 1.29 ± 0.049 | 1.39 ± 0.067 | 1.21 ± 0.034 |
| WESLAKKQNLSSHQRVF [SWP82] | 2.77 ± 0.063 | 2.71 ± 0.071 | 2.83 ± 0.06 | 2.91 ± 0.053 |
| GVLYQGNIQISEYNFLE [DIS3] |  | 3.05 ± 0.16 | 2.6 ± 0.18 | 2.96 ± 0.28 |
| LFVCNKDPDVPLVLLQQ [POP3] | 2.57 ± 0.082 | 2.32 ± 0.077 | 2.26 ± 0.11 | 2.27 ± 0.058 |
| NPSQGVSNSGAQDEEIH [UBP6] | 2.04 ± 0.074 | 2.22 ± 0.068 | 2.04 ± 0.12 | 2.11 ± 0.059 |
| KEILDNILPFLWGPHGL [ECM29] | 2.67 ± 0.24 | 3.09 ± 0.24 |  | 3.37 ± 0.17 |
| KIRCFRYISTLTLYLFQ [IRR1] | 1.69 ± 0.073 | 1.47 ± 0.077 | 1.64 ± 0.15 | 1.51 ± 0.14 |
| QSNYGIYSSDAQGDPNL [NUT1] | 3.03 ± 0.077 | 2.92 ± 0.065 | 2.51 ± 0.056 | 3.06 ± 0.063 |
| NLDSSITQDGKFAYKID [YMR129W/POM152] | 2.38 ± 0.065 | 2.69 ± 0.064 | 2.26 ± 0.08 | 2.71 ± 0.05 |
| ERPPLLPILPIQRLRLL [YOR098C/NUP1] | 1.34 ± 0.1 | 2.36 ± 0.12 | 1.95 ± 0.18 | 1.9 ± 0.11 |
| TSTKDKNSSTSNTEPIP [MED1] | 3.17 ± 0.058 | 3.27 ± 0.061 | 3.21 ± 0.046 | 3.16 ± 0.041 |
| NIEERKEKIQHELGINI [BRR2] | 3.02 ± 0.094 | 3.34 ± 0.075 | 3.52 ± 0.075 | 3.22 ± 0.1 |
| YNDSATSGEAAALGMGL [RPN2] | 2.32 ± 0.096 | 2.45 ± 0.11 | 2.99 ± 0.078 | 2.43 ± 0.084 |
| DGYQLFHAEPSGTFYRY [PUP2] | 2.14 ± 0.11 | 1.6 ± 0.095 | 2.64 ± 0.062 | 1.5 ± 0.076 |
| HLLVQLQKNDVYAFKAK [REC8] | 3.15 ± 0.075 | 2.99 ± 0.064 | 2.73 ± 0.059 | 3.15 ± 0.074 |
| NFLVFQGDVEQIAAQSP [SMC1] | 2.49 ± 0.1 | 2.51 ± 0.092 | 2.68 ± 0.14 | 2.61 ± 0.094 |
| RASKALIERYYPKLTLD [RPS17A] |  | 2.51 ± 0.14 |  | 2.37 ± 0.25 |
| FDNKSTSEEQEALLRSL [SNF2] | 3.32 ± 0.072 | 3.6 ± 0.18 | 2.68 ± 0.26 | 2.73 ± 0.2 |
| QELCYPDENHDNTSHDE [BRN1] | 3.23 ± 0.073 | 3.27 ± 0.061 | 2.98 ± 0.061 | 3.35 ± 0.056 |
| VRNTAPNIRELGVKNLG [YCG1] | 2.88 ± 0.2 | 3.29 ± 0.22 |  | 2.98 ± 0.13 |
| QCYKIYDLVILKSGLPL [YMR129W/POM152] |  | 2.04 ± 0.12 | 2.25 ± 0.14 | 1.29 ± 0.059 |

— the supplement of paper PMC9732359
